Experimental data published in article PMC4694050 (Journal of the American Chemical Society, 2015).
Substitutions are numbered along the chain they refer to. Numbers in names are those of the source.

T1: Triosephosphate Isomerase from Yeast (Saccharomyces cerevisiae, UniProt P00942, Y208F)
T1 sequence (P00942 2-248 Y208F): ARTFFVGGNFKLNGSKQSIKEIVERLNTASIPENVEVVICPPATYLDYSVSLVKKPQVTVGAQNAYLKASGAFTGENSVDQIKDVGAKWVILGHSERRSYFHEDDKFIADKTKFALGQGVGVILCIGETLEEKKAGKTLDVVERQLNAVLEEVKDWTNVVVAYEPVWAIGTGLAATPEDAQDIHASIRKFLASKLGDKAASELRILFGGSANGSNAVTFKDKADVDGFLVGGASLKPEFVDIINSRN

B1: Y16F: Y16F mutant of ketosteroid isomerase (KSI) from Pseudomonas putida (protein, UniProt P07445 1-131, looked up, variant Y16F)
Steroid Delta-isomerase: MNLPTAQEVQGLMARFIELVDVGDIEAIVQMYADDATVEDPFGQPPIHGREQIAAFYRQGLGGGKVRACLTGPVRASHNGCGAMPFRVEMVWNGQPCALDVIDVMRFDEHGRIQTMQAYWSEVNLSVREPQ
B2: 208-TGAG for 208-YGGS (LRM): 208-TGAG for 208-YGGS loop 7 replacement mutation of TIM from chicken muscle (protein, UniProt P00940 2-248, looked up, variant Y208T G210A S211G)
Triosephosphate isomerase: APRKFFVGGNWKMNGDKKSLGELIHTLNGAKLSADTEVVCGAPSIYLDFARQKLDAKIGVAAQNCYKVPKGAFTGEISPAMIKDIGAAWVILGHSERRHVFGESDELIGQKVAHALAEGLGVIACIGEKLDEREAGITEKVVFEQTKAIADNVKDWSKVVLAYEPVWAIGTGKTATPQQAQEVHEKLRGWLKSHVSDAVAQSTRIITGAGVTGGNCKELASQHDVDGFLVGGASLKPEFVDIINAKH
B3: S211G (protein, UniProt P00942 2-248, looked up, variant S211G)
Triosephosphate isomerase: T1 sequence (P00942 2-248 Y208F) with F207Y, S210G
B4: Y208S (protein, UniProt P00942 2-248, looked up, variant Y208S)
Triosephosphate isomerase: T1 sequence (P00942 2-248 Y208F) with F207S
B5: Y208T/S211G (protein, UniProt P00942 2-248, looked up, variant Y208T S211G)
Triosephosphate isomerase: T1 sequence (P00942 2-248 Y208F) with F207T, S210G
B6: Y208T (protein, UniProt P00942 2-248, looked up, variant Y208T)
Triosephosphate isomerase: T1 sequence (P00942 2-248 Y208F) with F207T
B7: Y208A (protein, UniProt P00942 2-248, looked up, variant Y208A)
Triosephosphate isomerase: T1 sequence (P00942 2-248 Y208F) with F207A
B8: wildtype: wildtype triosephosphate isomerase from Saccharomyces cerevisiae (yTIM) (protein, UniProt P00942 2-248, looked up)
Triosephosphate isomerase: T1 sequence (P00942 2-248 Y208F) with F207Y
B9: Y208F: Y208F loop 7 mutant of yeast triosephosphate isomerase (protein, UniProt P00942 2-248, looked up, variant Y208F)
Triosephosphate isomerase: T1 sequence (P00942 2-248 Y208F)
B10: S211A (protein, UniProt P00942 2-248, looked up, variant S211A)
Triosephosphate isomerase: T1 sequence (P00942 2-248 Y208F) with F207Y, S210A

Experiments:
[1] = system: ketosteroid isomerase (KSI) from Pseudomonas putida; settings: cited from earlier work
TIM from chicken muscle [2] = settings: chicken muscle TIM loop replacement mutant; pH 7.5, 25 °C; cited from earlier work
TIM from chicken muscle [3] = settings: cited from earlier work
TIM from chicken muscle [4] = settings: chicken muscle TIM loop replacement mutant; pH 7.5, 25 °C; cited from earlier work; remark: listed apart in the source
[5] = system: Triosephosphate Isomerase from Yeast; format: biochemical, Saccharomyces cerevisiae; settings: for GAP kcat: 30 mM triethanolamine pH 7.5, 25 °C
[6] = system: Triosephosphate Isomerase from Yeast; format: biochemical, Saccharomyces cerevisiae; settings: isomerization of DHAP; pH 7.5, 25 °C, I = 0.1 (NaCl)
[7] = target: T1, Triosephosphate Isomerase from Yeast; settings: isomerization of [l-^2H]-dihydroxyacetone phosphate; cited from earlier work
[8] = target: T1, Triosephosphate Isomerase from Yeast; format: biochemical
yTIM = format: biochemical, Saccharomyces cerevisiae; settings: unactivated deprotonation of glycolaldehyde
[9] = isomerization of GAP, I = 0.1 (NaCl)

| Molecule | GAP kcat [5, 9] [s^–1] | DHAP kcat [6] | also measured |
| --- | --- | --- | --- |
| B1 |  |  | falloff in activity [1]: 5000 fold; falloff in activity (decrease in kcat/Km) relative to that for Y16A, Y16G, Y16S and Y16T mutants [1]: ca. 100 fold |
| B2 |  |  | DHAP kcat (TIM from chicken muscle [2]): 8.0 s^–1; (kcat/Km)E•HPi/Kd (TIM from chicken muscle [3]; chicken muscle TIM loop replacement mutant, third-order rate constant): 95 M^–2 s^–1; effect of mutation on [(kcat/Km)E]obs: KC (TIM from chicken muscle [3]; chicken muscle TIM): no change; GAP kcat (TIM from chicken muscle [4]): 16 s^–1 |
| B3 | 7500 ± 500 | 810 ± 10 s^–1 | activity relative to S211A TIM ([5]; S211G greater than S211A): 20 fold |
| B4 | 940 ± 30 | 250 ± 5 s^–1 |  |
| B5 | 520 ± 30 | 135 ± 5 s^–1 | GAP kcat/Km (upper value) ([5]; isomerization of GAP, pH 7.5, 25 °C, I = 0.1 (NaCl), calculated for total concentration of GAP): (7.3 ± 0.8) × 10^5 M^–1 s^–1; GAP kcat/Km (lower value) ([5]; isomerization of GAP, pH 7.5, 25 °C, calculated for the reactive carbonyl form, 4% of total GAP): 1.8 × 10^7 M^–1 s^–1; DHAP kcat/Km [6]: (3.4 ± 0.2) × 10^4 M^–1 s^–1 |
| B6 | 3700 ± 50 | 580 ± 10 s^–1 |  |
| B7 | 740 ± 10 | 210 ± 5 s^–1 |  |
| B8 | 8900 ± 700 | 860 ± 10 s^–1 |  |
| B9 | 13 ± 1 | 4.5 ± 0.3 s^–1 | primary deuterium kinetic isotope effect kH/kD on kcat/Km [7]: 6; reduction in enzyme activity compared to the Y208A and Y208S mutants [5]: ca. 50 fold; reduction in kcat implied by deviation from Figure 7 correlation ([8]; kcat for GAP vs Kd^⧧ correlation): 40 fold; negative deviation from the correlation in Figure 7 ([8]; log kcat for GAP vs intrinsic dianion binding energy): 1.6 log unit; decrease in (kcat/Km)E compared with wildtype (yTIM): 20 fold |
| B10 | 2800 ± 100 | linear plot | decrease in (kcat/Km)E compared with wildtype (yTIM): 30 fold |
